# Test results published in paper PMC5628483, “Soluble polymorphic bank vole prion proteins induced by co-expression of quiescin sulfhydryl oxidase in E. coli and their aggregation behaviors” (Microbial Cell Factories, 2017).
# B1: Quiescin sulfhydryl oxidase (QSOX) (enzyme)
# chain: APRSALYSPSDPLTLLQADTVRGAVLGSRSAWAVEFFASWCGHCIAFAPTWKALAEDVKAWRPALYLAALDCAEETNSAVCRDFNIPGFPTVRFFKAFTKNGSGAVFPVAGADVQTLRERLIDALESHHDTWPPACPPLEPAKLEEIDGFFARNNEEYLALIFEKGGSYLGREVALDLSQHKGVAVRRVLNTEANVVRKFGVTDFPSCYLLFRNGSVSRVPVLMESRSFYTAYLQRLSGLTREAAQTTVAPTTANKIAPTVWKLADRSKIYMADLESALHYILRIEVGRFPVLEGQRLVALKKFVAVLAKYFPGRPLVQNFLHSVNEWLKRQKRNKIPYSFFKTALDDRKEGAVLAKKVNWIGCQGSEPHFRGFPCSLWVLFHFLTVQAARQNVDHSQEAAKAKEVLPAIRGYVHYFFGCRDCASHFEQMAAASMHRVGSPNAAVLWLWSSHNRVNARLAGAPSEDPQFPKVQWPPRELCSACHNERLDVPVWDVEATLNFLKAHFSPSNIILDFPAAGSAARRDVQNVAAAPELAMGALELESRNSTLDPGKPEMMKSPTNTTPHVPAEGPELI
# Legend:
# [1] = biological target: full-length recombinant bank vole prion protein with methionine at residue 109 (rBVPrP-109M) (bank vole (Myodes glareolus), UniProt Q8VHV5 23-231); assay: SPR; conditions: both partners purified
# [2] = biological target: full-length recombinant bank vole prion protein with isoleucine at residue 109 (rBVPrP-109I) (bank vole (Myodes glareolus), UniProt Q8VHV5 23-231, 109I); assay: SPR; conditions: both partners purified
binder,measurement,setting,value
B1,Kd,[1],23 nM
same,Kd,[2],11 nM
